{"source": "patent US20070004636A1", "about": "“Method of degrading transcriptional factors of saccharometabolism-associated gene, method for inhibiting the degradation, and agent for inhibiting degradation and degradation inhibitor” (priority 2002, published 2007)", "molecules": {"B1": {"name": "human m-calpain: lysate of sf-9 insect cells coexpressing human m-calpain with calpain small subunit 1; FLAG-tagged, expressed in HEK293T cells, in Example 3 (protein, UniProt P17655 20-700; P04632 1-268, looked up)", "Calpain-2 catalytic subunit": "SHDRAIKYLNQDYEALRNECLEAGTLFQDPSFPAIPSALGFKELGPYSSKTRGIEWKRPTEICADPQFIIGGATRTDICQGALGDCWLLAAIASLTLNEEILARVVPLNQSFQENYAGIFHFQFWQYGEWVEVVVDDRLPTKDGELLFVHSAEGSEFWSALLEKAYAKINGCYEALSGGATTEGFEDFTGGIAEWYELKKPPPNLFKIIQKALQKGSLLGCSIDITSAADSEAITFQKLVKGHAYSVTGAEEVESNGSLQKLIRIRNPWGEVEWTGRWNDNCPSWNTIDPEERERLTRRHEDGEFWMSFSDFLRHYSRLEICNLTPDTLTSDTYKKWKLTKMDGNWRRGSTAGGCRNYPNTFWMNPQYLIKLEEEDEDEEDGESGCTFLVGLIQKHRRRQRKMGEDMHTIGFGIYEVPEELSGQTNIHLSKNFFLTNRARERSDTFINLREVLNRFKLPPGEYILVPSTFEPNKDGDFCIRVFSEKKADYQAVDDEIEANLEEFDISEDDIDDGFRRLFAQLAGEDAEISAFELQTILRRVLAKRQDIKSDGFSIETCKIMVDMLDSDGSGKLGLKEFYILWTKIQKYQKIYREIDVDRSGTMNSYEMRKALEEAGFKMPCQLHQVIVARFADDQLIIDFDNFVRCLVRLETLFKIFKQLDPENTGTIELDLISWLCFSVL", "Calpain small subunit 1": "MFLVNSFLKGGGGGGGGGGGLGGGLGNVLGGLISGAGGGGGGGGGGGGGGGGGGGGTAMRILGGVISAISEAAAQYNPEPPPPRTHYSNIEANESEEVRQFRRLFAQLAGDDMEVSATELMNILNKVVTRHPDLKTDGFGIDTCRSMVAVMDSDTTGKLGFEEFKYLWNNIKRWQAIYKQFDTDRSGTICSSELPGAFEAAGFHLNEHLYNMIIRRYSDESGNMDFDNFISCLVRLDAMFRAFKSLDKDGTGQIQVNIQEWLQLTMYS", "modifications": "FLAG tag"}}, "key": {"human HNF-4α": {"test_system": "human HNF-4α", "assay": "in vitro protein degradation test of HNF-4α by calpain (Western blotting)", "assay_type": "biochemical", "conditions": "1 hour at 37° C.", "experimental": "Using the HNF-4α expression plasmid, in vitro synthesis of HNF-4α protein was conducted using the TNT T7 Quick Coupled Transcription/Translation System (Promega, Inc.). That is, the HNF-4α expression plasmid was mixed with TNT T7 Quick Master Mix, and then incubated for 1.5 hours at 30° C. in the presence of methionine to synthesize HNF-4α.\nThe in vitro protein degradation test was carried out by adding m-calpain extracted from rabbit muscle (Protease, Calcium-Activated Neutral (calpain), Sigma Chemical Co.) at a final concentration of 50 μg/mL to the synthesized HNF-4α, and then incubating for 1 hour at 37° C. in the presence of 200 mM Tris-HCl (pH 7.8)/1 mM dithiothreitol (DTT)/6 mM CaCl2. To conduct a degradation test in the absence of calcium, a test sample was prepared by adding 10 mM ethylenediaminetetraacetic acid (EDTA) instead of 6 mM CaCl2, and the sample was then incubated in a similar manner. The samples after incubation were added to an equal volume of 2× sodium dodecyl sulfate (SDS) sample buffer (4% SDS/125 mM Tris-HCl, pH 6.8/20% glycerol/0.01% bromphenol blue (BPB)/10% β-mercaptoethanol), heated for 5 minutes, and subjected to 10% SDS-PAGE for separation. Thereafter, Western blotting was carried out to detect HNF-4α using anti-HNF-4α antibody/HNF-4α (C-19) antibody (Santa Cruz Biotechnology, Inc.) and anti-Xpress antibody (Invitrogen, Inc.). An ECL Western blotting detection kit (Amersham pharmacia biotech) was used for the detection.\nThe final concentration of human m-calpain in the reaction system was 2.33 mg/mL as the protein concentration of the lysate of sf-9 cells that expressed human m-calpain. The final concentration of rat m-calpain in the reaction system was 59 units/mL. A degradation test was also conducted in the same manner without addition of calpain. Further, to test for degradation in the absence of calcium, a sample was prepared by adding 10 mM of EDTA instead of 6 mM CaCl2, and a degradation test was conducted with the sample in a similar manner. The samples after incubation were added to an equal volume of 2×SDS sample buffer, heated for 5 minutes, and subjected to 5-20% SDS-PAGE for separation. Thereafter, Western blotting was carried out to detect HNF-4α using anti-HNF-4α antibody/HNF-4α (C-19) antibody. An ECL Western blotting detection kit was used for the detection.\nAn in vitro protein degradation test was carried out by adding μ-calpain to HNF-4α at a final concentration of 50 units/mL, and incubating for 1 hour at 37° C. in the presence of 200 mM Tris-HCl (pH 7.8)/1 mM DTT/6 mM CaCl2. […]"}, "human HNF-1α": {"test_system": "human HNF-1α", "assay": "in vitro protein degradation test of HNF-1α by calpain (Western blotting)", "assay_type": "biochemical", "conditions": "1 hour at 37° C.", "experimental": "Using the HNF-1α expression plasmid, in vitro synthesis of HNF-1α protein was carried out using the TNT T7 Quick Coupled Transcription/Translation System. That is, the HNF-1α expression plasmid was mixed with TNT T7 Quick Master Mix, and then incubated for 1.5 hours at 30° C. in the presence of methionine to synthesize HNF-1α. Thereafter, immunoprecipitation was conducted by adding anti-Xpress antibody to the synthesized HNF-1α, mixing by inversion for 1 hour at 4° C., and then adding Protein G Sepharose 4 Fast Flow and mixing by inversion for an additional 1 hour at 4° C. Subsequently, Protein G Sepharose was collected by centrifugation and washed 3 times with washing buffer (50 mM Tris-HCl, pH 7.5/150 mM NaCl/0.2% Nonidet P-40), followed by rinsing with 200 mM Tris-HCl (pH 7.8) to obtain the HNF-1α sample as 20% slurry (hereunder, referred to as “HNF-1α slurry”).\nProtein degradation tests were carried out in vitro by adding μ-calpain or m-calpain to the HNF-1α slurry, and incubating for 1 hour at 37° C. in the presence of 200 mM Tris-HCl (pH 7.8)/1 mM DTT/6 mM CaCl2. The final concentrations of the respective calpain in the reaction system were as follows: 50 units/mL of human μ-calpain; 50 μg/mL of rabbit m-calpain as a protein concentration; and 59 units/mL of rat m-calpain. For a control experiment, an HNF-1α slurry was incubated without the addition of calpain in a similar manner in the presence of calcium. Further, to test for protein degradation in the absence of calcium, a sample was prepared by adding 10 mM of EDTA instead of 6 mM of CaCl2 and was incubated in the same manner. The samples after incubation were added to an equal volume of 2×SDS sample buffer, heated for 5 minutes, and then subjected to 5-20% SDS-PAGE for separation. Thereafter, Western blotting was carried out to detect HNF-1α using anti-Omni/M21 antibody (Santa Cruz Biotechnology, Inc.), which recognizes a His-Xpress region, and anti-HNF-1α antibody/HNF-1α (C-19) antibody (Santa Cruz Biotechnology, Inc.). An ECL Western blotting detection kit was used for conducting the detection.\nIn-vitro protein degradation tests were carried out in the same manner as in Example 7, but the lysate of sf-9 cells that coexpressed m-calpain with calpain small subunit 1 was used as m-calpain. The final concentration of the lysate of the sf-9 cells that expressed these proteins in the reaction system was 1.75 mg/mL as a protein concentration. The final concentration of rat m-calpain in the reaction system was 59 units/mL. Detection of HNF-1α was performed in the same manner as Example 7, but only anti-HNF-1α antibody/HNF-1α (C-19) antibody was used."}, "[1]": {"conditions": "in the absence of calcium (10 mM EDTA instead of CaCl2)"}, "[2]": {"conditions": "in the presence of calcium (6 mM CaCl2), Western blotting"}}}
{"molecule": "B1", "values": [{"measurement": "degradation of HNF-4α", "setting": "human HNF-4α; [1]", "result": "not observed"}, {"measurement": "degradation of HNF-4α", "setting": "human HNF-4α; [2]", "result": "observed"}, {"measurement": "degradation of HNF-1α", "setting": "human HNF-1α; [1]", "result": "not observed"}, {"measurement": "degradation of HNF-1α", "setting": "human HNF-1α; [2]", "result": "observed"}]}
